Measured values taken from patent US20210121563A1 (Novartis, published 2021).

Experiments:
[1] = target: T1, Programmed Death 1 (PD-1) (UniProt Q15116 25-288, limits assumed); test: rank of the clone among the 16 humanized clones by FACS binding data; higher number = worse
[2] = target: T1, Programmed Death 1 (PD-1); test: rank of the clone in the competition binding assay with labeled murine mAb BAP049, 1st experiment; higher number = worse
[3] = target: T1, Programmed Death 1 (PD-1); test: rank of the clone in the competition binding assay with labeled murine mAb BAP049, 2nd experiment; higher number = worse
[4] = target: T1, Programmed Death 1 (PD-1); test: FACS blocking of ligand-Ig binding to PD-1, MFI of bound ligand; ligand by the legend paragraph 125 'PD-L1-Ig and PD-L2-Ig' (no ligand named on the sheet; FIG. 8B is PD-L2-Ig, so most likely PD-L1-Ig); cells not named

T1 sequence (Q15116 25-288 limits assumed): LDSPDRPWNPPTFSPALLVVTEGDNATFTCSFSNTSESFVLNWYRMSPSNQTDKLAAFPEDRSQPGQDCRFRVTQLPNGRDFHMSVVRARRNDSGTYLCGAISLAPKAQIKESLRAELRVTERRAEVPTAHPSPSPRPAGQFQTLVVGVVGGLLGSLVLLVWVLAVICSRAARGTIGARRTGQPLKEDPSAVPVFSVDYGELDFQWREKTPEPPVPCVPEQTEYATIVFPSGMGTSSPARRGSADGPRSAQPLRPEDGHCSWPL

Binder	Ranking, FACS data [1]	Competition Binding, 1st exp. (rank) [2]	Competition Binding, 2nd exp. (rank) [3]	IC50 (read off the curve) [4] [mg/L]
BAP049-hum13 (antibody, human IgG4 S228P, kappa, also called Clone No. 13) heavy: not shown light: DVVMTQSPLSLPVTLGQPASISCKSSQSLLDSGNQKNFLTWYQQKPGKAPKLLIYWASTRESGVPSRFSGSGSGTDFTFTISSLEAEDAATYYCQNDYSYPYTFGQGTKVEIKRTVAAPSVFIFPPSDEQLKSGTASVVCLLNNFYPREAKVQWKVDNALQSGNSQESVTEQDSKDSTYSLSSTLTLSKADYEKHKVYACEVTHQGLSSPVTKSFNRGEC	6	1	1	
BAP049-hum02 (antibody, human IgG4 S228P, kappa, V domains shown, also called Clone No. 2) VH: EVQLVQSGAEVKKPGESLRISCKGSGYTFTTYWMHWVRQATGQGLEWMGNIYPGTGGSNFDEKFKNRVTITADKSTSTAYMELSSLRSEDTAVYYCTRWTTGTGAYWGQGTTVTVSS VL: DIQMTQSPSSLSASVGDRVTITCKSSQSLLDSGNQKNFLTWYQQKPGQAPRLLIYWASTRESGIPPRFSGSGYGTDFTLTINNIESEDAAYYFCQNDYSYPYTFGQGTKVEIKR	6	3	2	
BAP049-hum12 (antibody, human IgG4 S228P, kappa, V domains shown, also called Clone No. 12) VH: EVQLVQSGAEVKKPGESLRISCKGSGYTFTTYWMHWVRQATGQGLEWMGNIYPGTGGSNFDEKFKNRVTITADKSTSTAYMELSSLRSEDTAVYYCTRWTTGTGAYWGQGTTVTVSS VL: DIQMTQSPSSLSASVGDRVTITCKSSQSLLDSGNQKNFLTWYLQKPGQSPQLLIYWASTRESGVPSRFSGSGSGTDFTFTISSLEAEDAATYYCQNDYSYPYTFGQGTKVEIKR	3	8	16	
Chi mAb (Tyr) (antibody, human IgG4 S228P, kappa, V domains shown, also called BAP049-chi-Y; Chi (Tyr)) VH: QVQLQQSGSELVRPGASVKLSCKASGYTFTTYWMHWVRQRPGQGLEWIGNIYPGTGGSNFDEKFKNRTSLTVDTSSTTAYMHLASLTSEDSAVYYCTRWTTGTGAYWGQGTTVTVSS VL: DIVMTQSPSSLTVTAGEKVTMSCKSSQSLLDSGNQKNFLTWYQQKPGQPPKLLIFWASTRESGVPDRFTGSGSVTDFTLTISSVQAEDLAVYYCQNDYSYPYTFGQGTKVEIKR				~0.8
Mu mAb (antibody, V domains shown, also called murine anti-PD-1 mAb BAP049; Mu mAb control) VH: QVQLQQSGSELVRPGASVKLSCKASGYTFTTYWMHWVRQRPGQGLEWIGNIYPGTGGSNFDEKFKNRTSLTVDTSSTTAYMHLASLTSEDSAVYYCTRWTTGTGAYWGQGTLVTVSA VL: DIVMTQSPSSLTVTAGEKVTMSCKSSQSLLDSGNQKNFLTWYQQKPGQPPKLLIFWASTRESGVPDRFTGSGSVTDFTLTISSVQAEDLAVYYCQNDYSYPCTFGGGTKLEIK				~0.6
BAP049-hum10 (antibody, human IgG4 S228P, kappa, also called humanized BAP049 clone hum10) heavy: not shown light: EIVLTQSPATLSLSPGERATLSCKSSQSLLDSGNQKNFLTWYQQKPGQAPRLLIYWASTRESGVPSRFSGSGSGTDFTFTISSLEAEDAATYYCQNDYSYPYTFGQGTKVEIKRTVAAPSVFIFPPSDEQLKSGTASVVCLLNNFYPREAKVQWKVDNALQSGNSQESVTEQDSKDSTYSLSSTLTLSKADYEKHKVYACEVTHQGLSSPVTKSFNRGEC	7	6	> 4	
BAP049-hum15 (antibody, human IgG4 S228P, kappa, also called Clone No. 15) heavy: not shown light: EIVLTQSPDFQSVTPKEKVTITCKSSQSLLDSGNQKNFLTWYQQKPGQAPRLLIYWASTRESGVPSRFSGSGSGTDFTFTISSLEAEDAATYYCQNDYSYPYTFGQGTKVEIKRTVAAPSVFIFPPSDEQLKSGTASVVCLLNNFYPREAKVQWKVDNALQSGNSQESVTEQDSKDSTYSLSSTLTLSKADYEKHKVYACEVTHQGLSSPVTKSFNRGEC	6	7	15	
BAP049-hum11 (antibody, human IgG4 S228P, kappa, also called humanized BAP049 clone hum11) heavy: not shown light: EIVLTQSPATLSLSPGERATLSCKSSQSLLDSGNQKNFLTWYQQKPGQAPRLLIYWASTRESGVPSRFSGSGSGTDFTFTISSLEAEDAATYYCQNDYSYPYTFGQGTKVEIKRTVAAPSVFIFPPSDEQLKSGTASVVCLLNNFYPREAKVQWKVDNALQSGNSQESVTEQDSKDSTYSLSSTLTLSKADYEKHKVYACEVTHQGLSSPVTKSFNRGEC	6	4	> 4	
BAP049-hum01 (antibody, human IgG4 S228P, kappa, V domains shown, also called humanized BAP049 clone hum01) VH: EVQLVQSGAEVKKPGESLRISCKGSGYTFTTYWMHWVRQATGQGLEWMGNIYPGTGGSNFDEKFKNRVTITADKSTSTAYMELSSLRSEDTAVYYCTRWTTGTGAYWGQGTTVTVSS VL: EIVLTQSPATLSLSPGERATLSCKSSQSLLDSGNQKNFLTWYQQKPGQAPRLLIYWASTRESGVPSRFSGSGSGTEFTLTISSLQPDDFATYYCQNDYSYPYTFGQGTKVEIKR	2	7	2	
BAP049-hum14 (antibody, human IgG4 S228P, kappa, also called Clone No. 14) heavy: not shown light: EIVLTQSPATLSLSPGERATLSCKSSQSLLDSGNQKNFLTWYQQKPGQAPRLLIYWASTRESGVPSRFSGSGSGTDFTFTISSLEAEDAATYYCQNDYSYPYTFGQGTKVEIKRTVAAPSVFIFPPSDEQLKSGTASVVCLLNNFYPREAKVQWKVDNALQSGNSQESVTEQDSKDSTYSLSSTLTLSKADYEKHKVYACEVTHQGLSSPVTKSFNRGEC	16	7	15	
BAP049-hum04 (antibody, human IgG4 S228P, kappa, V domains shown, also called Clone No. 4) VH: EVQLVQSGAEVKKPGESLRISCKGSGYTFTTYWMHWIRQSPSRGLEWLGNIYPGTGGSNFDEKFKNRFTISRDNSKNTLYLQMNSLRAEDTAVYYCTRWTTGTGAYWGQGTTVTVSS VL: EIVLTQSPATLSLSPGERATLSCKSSQSLLDSGNQKNFLTWYQQKPGKAPKLLIYWASTRESGVPSRFSGSGSGTDFTFTISSLQPEDIATYYCQNDYSYPYTFGQGTKVEIKR	14	15	15	
BAP049-hum07 (antibody, human IgG4 S228P, kappa, also called Clone No. 7) heavy: not shown light: EIVLTQSPATLSLSPGERATLSCKSSQSLLDSGNQKNFLTWYQQKPGKAPKLLIYWASTRESGVPSRFSGSGSGTDFTFTISSLEAEDAATYYCQNDYSYPYTFGQGTKVEIKRTVAAPSVFIFPPSDEQLKSGTASVVCLLNNFYPREAKVQWKVDNALQSGNSQESVTEQDSKDSTYSLSSTLTLSKADYEKHKVYACEVTHQGLSSPVTKSFNRGEC	4	7	> 4	
BAP049-hum06 (antibody, human IgG4 S228P, kappa, also called Clone No. 6) heavy: not shown light: DIVMTQTPLSLPVTPGEPASISCKSSQSLLDSGNQKNFLTWYQQKPGQAPRLLIYWASTRESGVPSRFSGSGSGTDFTFTISSLEAEDAATYYCQNDYSYPYTFGQGTKVEIKRTVAAPSVFIFPPSDEQLKSGTASVVCLLNNFYPREAKVQWKVDNALQSGNSQESVTEQDSKDSTYSLSSTLTLSKADYEKHKVYACEVTHQGLSSPVTKSFNRGEC	1	7	3	
BAP049-hum09 (antibody, human IgG4 S228P, kappa, also called humanized BAP049 clone hum09) heavy: not shown light: EIVLTQSPDFQSVTPKEKVTITCKSSQSLLDSGNQKNFLTWYQQKPGQAPRLLIYWASTRESGVPSRFSGSGSGTDFTFTISSLEAEDAATYYCQNDYSYPYTFGQGTKVEIKRTVAAPSVFIFPPSDEQLKSGTASVVCLLNNFYPREAKVQWKVDNALQSGNSQESVTEQDSKDSTYSLSSTLTLSKADYEKHKVYACEVTHQGLSSPVTKSFNRGEC	7	2	4	~0.7
BAP049-hum05 (antibody, human IgG4 S228P, kappa, V domains shown, also called humanized BAP049 clone hum05) VH: EVQLVQSGAEVKKPGESLRISCKGSGYTFTTYWMHWVRQATGQGLEWMGNIYPGTGGSNFDEKFKNRVTITADKSTSTAYMELSSLRSEDTAVYYCTRWTTGTGAYWGQGTTVTVSS VL: EIVLTQSPATLSLSPGERATLSCKSSQSLLDSGNQKNFLTWYQQKPGKAPKLLIYWASTRESGVPSRFSGSGSGTDFTFTISSLQPEDIATYYCQNDYSYPYTFGQGTKVEIKR	5	5	> 4	
BAP049-hum08 (antibody, human IgG4 S228P, kappa, also called humanized BAP049 clone hum08) heavy: not shown light: EIVLTQSPDFQSVTPKEKVTITCKSSQSLLDSGNQKNFLTWYQQKPGQAPRLLIYWASTRESGVPSRFSGSGSGTDFTFTISSLEAEDAATYYCQNDYSYPYTFGQGTKVEIKRTVAAPSVFIFPPSDEQLKSGTASVVCLLNNFYPREAKVQWKVDNALQSGNSQESVTEQDSKDSTYSLSSTLTLSKADYEKHKVYACEVTHQGLSSPVTKSFNRGEC	7	7	4	
BAP049-hum16 (antibody, human IgG4 S228P, kappa, V domains shown, also called Clone No. 16) VH: EVQLVQSGAEVKKPGESLRISCKGSGYTFTTYWMHWVRQAPGQGLEWMGNIYPGTGGSNFDEKFKNRFTISRDNSKNTLYLQMNSLRAEDTAVYYCTRWTTGTGAYWGQGTTVTVSS VL: EIVLTQSPDFQSVTPKEKVTITCKSSQSLLDSGNQKNFLTWYQQKPGQAPRLLIYWASTRESGVPSRFSGSGSGTDFTFTISSLEAEDAATYYCQNDYSYPYTFGQGTKVEIKR	15	16	15	
BAP049-hum03 (antibody, human IgG4 S228P, kappa, V domains shown, also called Clone No. 3) VH: EVQLVQSGAEVKKPGESLRISCKGSGYTFTTYWMHWIRQSPSRGLEWLGNIYPGTGGSNFDEKFKNRFTISRDNSKNTLYLQMNSLRAEDTAVYYCTRWTTGTGAYWGQGTTVTVSS VL: DIQMTQSPSSLSASVGDRVTITCKSSQSLLDSGNQKNFLTWYQQKPGQAPRLLIYWASTRESGIPPRFSGSGYGTDFTLTINNIESEDAAYYFCQNDYSYPYTFGQGTKVEIKR	7	8	14	
